Measurements published in publication PMC11266516.

Molecular target: Fc gamma receptors on mouse peritoneal macrophages (mouse (endogenous in peritoneal macrophages))
Assay: flow cytometry on cells; ImageStream X imaging flow cytometry; peritoneal wash cells (2 x 10^6) in 100 uL 1% BSA PBS stained with 0.125 ug mouse IgG-DyLight 405 and anti-CD11b-FITC, 30 min, room temperature; no Fc block

percent of CD11b+ macrophages that bound exogenous IgG: 98.6%
Substance: mouse IgG-DyLight 405 (fluorescently conjugated mouse monomeric IgG) (antibody)
